# Assay results from patent US20230312704A1 (SHANGHAI ESCUGEN BIOTECHNOLOGY, published 2023).
# T1: mouse CLDN18.2 (mCLDN18.2) (mouse, UniProt P56857 10-264)
# T1 construct: Stably expressed on HEK293 cells; the stomach-type isoform is meant; also called mouse mhCLDN18.2; m hCLDN18.2
# T1 chain: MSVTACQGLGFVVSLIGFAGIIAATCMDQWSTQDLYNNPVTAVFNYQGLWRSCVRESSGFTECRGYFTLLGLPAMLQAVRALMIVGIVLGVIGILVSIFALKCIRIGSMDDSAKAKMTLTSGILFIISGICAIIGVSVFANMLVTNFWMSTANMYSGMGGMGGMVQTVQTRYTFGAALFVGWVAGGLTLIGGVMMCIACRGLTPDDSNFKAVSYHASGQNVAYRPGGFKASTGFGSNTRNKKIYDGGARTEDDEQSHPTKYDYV
# B1: human-mouse chimeric positive control antibody 163E12 (antibody, human IgG1, kappa, V domains shown)
# VH: QIQLVQSGPELKKPGETVKISCKASGYTFTNYGMNWVKQAPGKGLKWMGWINTNTGEPTYAEEFKGRFAFSLETSASTAYLQINNLKNEDTATYFCARLGFGNAMDYWGQGTSVTVSS
# VL: DIVMTQSPSSLTVTAGEKVTMSCKSSQSLLNSGNQKNYLTWYQQKPGQPPKLLIYWASTRESGVPDRFTGSGSGTDFTLTISSVQAEDLAVYYCQNDYSYPLTFGAGTKLELKR
# notes: Human-mouse chimeric antibody expressed in CHOS cells and purified on Protein A. It was detected with an anti-human Fc secondary antibody; also called home-made positive control (Benchmarker) chimeric antibody 163E12
# B2: 5-I10 (mouse hybridoma clone, supernatant) (antibody, V domains shown)
# VH: EIQLQQSGAELVKPGASVKISCKAPGYSFTDYNMNWVKQSHGKSLEWIGNINSYYGSTSYNQKFKGKATLTVDRSSSTAYMQLNSLTSEDSAVYYCTNFDRGNSFPYWGHGTLVTVSA
# VL: DIVMTQSPSSLTVTVGEKVTMTCKSSQSLLNSGNQKNYLTWYQQKPGQSPKLLIYWASTRESGVPERFTGRGSGTDFTLTISSVQAEDLAVYYCQNGYSYPFTFGSGTNLEIK
# notes: Antibody as secreted by the hybridoma; also called subclones 5-I10-33 and 5-I10-18
# B3: 5-G17 (mouse hybridoma clone, supernatant) (antibody, V domains shown)
# VH: EVKLVESGGGLVKPGGSLKLSCAASGFTISDYGMAWVRQAPGKGPEWVAFISNLAYSIHYVDTVTGRFTISRENAKNTLYLEMRSLRSEDTAMYYCARMYYGNALDYWGQGTSVTVSS
# VL: DIVMTQSPSSLTVTTGEKVTMSCKSSQNLLNSGNQKNYLTWYQQKPGQPPKLLIYWASTRESGVPDRFTGSGSGTDFTLTISSVQAEDLAVYYCQNDYSFPLTFGAGTKLELK
# notes: Antibody as secreted by the hybridoma; also called subclones 5-G17-30 and 5-G17-6
# B4: purified recombinant mouse monoclonal antibody 5-I10 (mouse IgG2a, kappa) (antibody, V domains shown)
# VH: EIQLQQSGAELVKPGASVKISCKAPGYSFTDYNMNWVKQSHGKSLEWIGNINSYYGSTSYNQKFKGKATLTVDRSSSTAYMQLNSLTSEDSAVYYCTNFDRGNSFPYWGHGTLVTVSA
# VL: DIVMTQSPSSLTVTVGEKVTMTCKSSQSLLNSGNQKNYLTWYQQKPGQSPKLLIYWASTRESGVPERFTGRGSGTDFTLTISSVQAEDLAVYYCQNGYSYPFTFGSGTNLEIKR
# notes: also called recombinant and purified mouse IgG2a type 5-I10
# B5: purified recombinant mouse monoclonal antibody 5-G17 (mouse IgG2a, kappa) (antibody, V domains shown)
# VH: EVKLVESGGGLVKPGGSLKLSCAASGFTISDYGMAWVRQAPGKGPEWVAFISNLAYSIHYVDTVTGRFTISRENAKNTLYLEMRSLRSEDTAMYYCARMYYGNALDYWGQGTSVTVSS
# VL: DIVMTQSPSSLTVTTGEKVTMSCKSSQNLLNSGNQKNYLTWYQQKPGQPPKLLIYWASTRESGVPDRFTGSGSGTDFTLTISSVQAEDLAVYYCQNDYSFPLTFGAGTKLELKR
# notes: Expressed in HEK293 cells and purified on Protein A; also called recombinant and purified mouse IgG2a type 5-G17
# Columns and labels:
# [1] = biological target: T2, human CLDN18 splice variant 2 (Claudin 18.2, hCLDN18.2) (human); experiment: flow cytometry on HEK293-hCLDN18.2 cells, paraformaldehyde-fixed and non-fixed
# T2 construct: The same entry is used for CLDN18.2 in human stomach and gastric cancer FFPE tissue (IHC); also called HEK293-hCLDN18.2; HEK293-CLDN18.2
# [2] = biological target: T3, mouse CLDN18.1 (mCLDN18.1) (mouse, UniProt P56857 1-264); experiment: flow cytometry on HEK293-mCLDN18.1 cells, paraformaldehyde-fixed and non-fixed
# T3 construct: Stably expressed on HEK293 cells; the lung-type isoform is meant; also called HEK293-mCLDN18.1
# [3] = biological target: T1, mouse CLDN18.2 (mCLDN18.2); experiment: flow cytometry on HEK293-mCLDN18.2 cells, paraformaldehyde-fixed and non-fixed
# [4] = biological target: T2, human CLDN18 splice variant 2 (Claudin …); experiment: IHC with hybridoma supernatant on FFPE sections of HEK293-hCLDN18.2 cell blocks
# [5] = biological target: T2, human CLDN18 splice variant 2 (Claudin …); experiment: flow cytometry on HEK293-hCLDN18.2 cells, 3-fold dilutions from 10 µg/mL, 8 points
Binder,binding result [4],binding result [5],further results
B1,,,binding result [1]: binds; binding result [2]: no binding; binding result [3]: binds
B2,binds,,
B3,binds,,
B4,,binds,
B5,,binds,
